Values quoted from earlier work in PMC2924770.
Where two headings read alike, the source gives them in different places.

Assays:
[1] = target: hemoglobin (Homo sapiens) (UniProt P69905)
[2] = target: hemoglobin (Homo sapiens) (UniProt P69905); remark: listed apart in the source

| Substance | Kd [1] [nM] | Kd [2] [nM] |
| --- | --- | --- |
| Kgp (from UniProt B2RLK2) | 3.92 |  |
| RgpA (from UniProt P28784) |  | 3.72 |
